# Measured values published in patent publication US20050176123A1, “Protease inhibitor” (Morinaga Milk Industry Co., Ltd., priority 2002, published 2005).
# T1: papain (Carica papaya, UniProt P00784)
# T1 construct: purchased Wako Pure Chemical Industries, Ltd
# T1 sequence (P00784 134-345): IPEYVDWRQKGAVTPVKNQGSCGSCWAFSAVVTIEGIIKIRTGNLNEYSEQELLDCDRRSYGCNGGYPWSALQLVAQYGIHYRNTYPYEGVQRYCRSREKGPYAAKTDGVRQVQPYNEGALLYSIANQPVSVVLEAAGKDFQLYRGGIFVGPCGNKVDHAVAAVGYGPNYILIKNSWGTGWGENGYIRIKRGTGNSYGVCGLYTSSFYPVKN
# B1: human lactoferrin: commercially available human lactoferrin (Morinaga Milk Industry), SEQ ID No. 1 (protein, listed as Homo Sapiens)
# chain: MKLVFLVLLFLGALGLCLAGRRRRSVQWCAVSQPEATKCFQWQRNMRKVRGPPVSCIKRDSPIQCIQAIAENRADAVTLDGGFIYEAGLAPYKLRPVAAEVYGTERQPRTHYYAVAVVKKGGSFQLNELQGLKSCHTGLRRTAGWNVPIGTLRPFLNWTGPPEPIEAAVARFFSASCVPGADKGQFPNLCRLCAGTGENKCAFSSQEPYFSYSGAFKCLRDGAGDVAFIRESTVFEDLSDEAERDEYELLCPDNTRKPVDKFKDCHLARVPSHAVVARSVNGKEDAIWNLLRQAQEKFGKDKSPKFQLFGSPSGQKDLLFKDSAIGFSRVPPRIDSGLYLGSGYFTAIQNLRKSEEEVAARRARVVWCAVGEQELRKCNQWSGLSEGSVTCSSASTTEDCIALVLKGEADAMSLDGGYVYTAGKCGLVPVLAENYKSQQSSDPDPNCVDRPVEGYLAVAVVRRSDTSLTWNSVKGKKSCHTAVDRTAGWNIPMGLLFNQTGSCKFDEYFSQSCAPGSDPRSNLCALCIGDEQGENKCVPNSNERYYGYTGAFRCLAENAGDVAFVKDVTVLQNTDGNNNEAWAKDLKLADFALLCLDGKRKPVTEARSCHLAMAPNHAVVSRMDKVERLKQVLLHQQAKFGRNGSDCPDKFCLFQSETKNLLFNDNTECLARLHGKTTYEKYLGPQYVAGITNLKKCSTSPLLEACEFLRK
# modifications: sig_peptide (1)...(19) Lactoferrin
# B2: bovine lactoferrin: commercially available bovine lactoferrin (Morinaga Milk Industry), 78 kDa, SEQ ID No. 2 (protein, listed as Bos taurus)
# chain: MKLFVPALLSLGALGLCLAAPRKNVRWCTISQPEWFKCRRWQWRMKKLGAPSITCVRRAFALECIRAIAEKKADAVTLDGGMVFEAGRDPYKLRPVAAEIYGTKESPQTHYYAVAVVKKGSNFQLDQLQGRKSCHTGLGRSAGWIIPMGILRPYLSWTESLEPLQGAVAKFFSASCVPCIDRQAYPNLCQLCKGEGENQCACSSREPYFGYSGAFKCLQDGAGDVAFVKETTVFENLPEKADRDQYELLCLNNSRAPVDAFKECHLAQVPSHAVVARSVDGKEDLIWKLLSKAQEKFGKNKSRSFQLFGSPPGQRDLLFKDSALGFLRIPSKVDSALYLGSRYLTTLKNLRETAEEVKARYTRVVWCAVGPEEQKKCQQWSQQSGQNVTCATASTTDDCIVLVLKGEADALNLDGGYIYTAGKCGLVPVLAENRKSSKHSSLDCVLRPTEGYLAVAVVKKANEGLTWNSLKDKKSCHTAVDRTAGWNIPMGLIVNQTGSCAFDEFFSQSCAPGADPKSRLCALCAGDDQGLDKCVPNSKEKYYGYTGAFRCLAEDVGDVAFVKNDTVWENTNGESTADWAKNLNREDFRLLCLDGTRKPVTEAQSCHLAVAPNHAVVSRSDRAAHVKQVLLHQQALFGKNGKNCPDKFCLFKSETKNLLFNDNTECLAKLGGRPTYEEYLGTEYVTAIANLKKCSTSPLLEACAFLTR
# modifications: sig_peptide (1)...(19) Lactoferrin
# B3: transferrin: commercially available bovine transferrin (Nihon Pharmaceutical Co., Ltd.), SEQ ID No. 4 (protein, listed as Bos taurus)
# chain: MRPAVRALLACAVLGLCLADPERTVRWCTISTHEANKCASFRENVLRILESGPFVSCVKKTSHMDCIKAISNNEADAVTLDGGLVYEAGLKPNNLKPVVAEFHGTKDNPQTHYYAVAVVKKDTDFKLNELRGKKSCHTGLGRSAGWNIPMAKLYKELPDPQESIQRAAANFFSASCVPCADQSSFPKLCQLCAGKGTDKCACSNHEPYFGYSGAFKCLMEGAGDVAFVKHSTVFDNLPNPEDRKNYELLCGDNTRKSVDDYQECYLAMVPSHAVVARTVGGKEDVIWELLNHAQEHFGKDKPDNFQLFQSPHGKDLLFKDSADGFLKIPSKMDFELYLGYEYVTALQNLRESKPPDSSKDECMVKWCAIGHQERTKCDRWSGFSGGAIECETAENTEECIAKIMKGEADAMSLDGGYLYIAGKCGLVPVLAENYKTEGESCKNTPEKGYLAVAVVKTSDANINWNNLKDKKSCHTAVDRTAGWNIPMGLLYSKINNCKFDEFFSAGCAPGSPRNSSLCALCIGSEKGTGKECVPNSNERYYGYTGAFRCLVEKGDVAFVKDQTVIQNTDGNNNEAWAKNLKKENFEVLCKDGTRKPVTDAENCHLARGPNHAVVSRKDKATCVEKILNKQQDDFGKSVTDCTSNFCLFQSNSKDLLFRDDTKCLASIAKKTYDSYLGDDYVRAMTNLRQCSTSKLLEACTFHKP
# modifications: sig_peptide (1)...(19) Transferrin
# How the values were obtained:
# Type in all cases: biochemical
# cathepsin L = molecular target: T2, cathepsin L (Homo sapiens, UniProt P07711); test: cysteine protease inhibitory activity (Z-Phe-Arg-MCA fluorescence, method of Barrett et al.); settings: pH 5.5, 37° C., 10 minutes
# T2 construct: purchased Wako Pure Chemical Industries, Ltd
# T2 sequence (P07711 114-333, species assumed): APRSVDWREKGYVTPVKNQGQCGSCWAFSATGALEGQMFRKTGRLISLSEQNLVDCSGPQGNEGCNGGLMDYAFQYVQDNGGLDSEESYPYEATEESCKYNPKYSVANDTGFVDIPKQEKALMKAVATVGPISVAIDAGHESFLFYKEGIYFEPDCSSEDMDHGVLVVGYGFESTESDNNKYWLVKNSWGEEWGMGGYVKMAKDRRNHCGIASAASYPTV
# Description: (§1) Inhibitory activities against cysteine proteases including papain, cathepsin B, cathepsin L and cathepsin S (these proteases are available from Wako Pure Chemical Industries, Ltd.) were determined using commercially available bovine lactoferrin (manufactured by Morinaga Milk Industry Co., Ltd.) as a test sample. The inhibitory activity was measured with reference to the method by Barrett et al. (“Methods in Enzymology,” Vol. 80, p 535-561, 1981) as described below. Namely, Z-Phe-Arg-MCA (final concentration of […]: manufactured by Peptide Institute, Inc.) was added as a substrate to 0.1 M acetic acid buffer solution (pH 5.5) in which sample was dissolved at each concentration. Then, cysteine protease (a protease selected from papain, cathepsin B, cathepsin L and cathepsin S in the present test: manufactured by Wako Pure Chemical Industries, Ltd.) solution (final concentration: 15 units/ml) was added, the whole solution was mixed and the reaction was carried out at 37° C. for 10 minutes. Subsequently, fluorescence intensity (excitation wavelength: 370 nm, emission wavelength: 460 nm) of AMC (7-Amino-4-Methyl-Coumarin) released from the digested substrate was measured with a fluorescence spectrometer (manufactured by Hitachi, Ltd.).
# cathepsin B = molecular target: T3, cathepsin B (Homo sapiens, UniProt P07858); test: as above; settings: pH 5.5, 37° C., 10 minutes
# T3 construct: purchased Wako Pure Chemical Industries, Ltd
# Description: as §1
# papain [1] = molecular target: T1, papain; test: as above; settings: pH 5.5, 37° C., 10 minutes
# Description: as §1
# cathepsin S = molecular target: T4, cathepsin S (Homo sapiens, UniProt P25774); test: as above; settings: pH 5.5, 37° C., 10 minutes
# T4 construct: purchased Wako Pure Chemical Industries, Ltd
# T4 sequence (P25774 115-331, species assumed): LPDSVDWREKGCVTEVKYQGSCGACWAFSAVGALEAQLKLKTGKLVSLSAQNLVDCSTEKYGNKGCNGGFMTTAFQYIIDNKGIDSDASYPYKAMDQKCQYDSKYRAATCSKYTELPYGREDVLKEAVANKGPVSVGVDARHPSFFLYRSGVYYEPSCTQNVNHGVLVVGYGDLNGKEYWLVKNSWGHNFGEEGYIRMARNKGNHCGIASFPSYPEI
# Description: as §1
# papain [2] = molecular target: T1, papain; test: reverse zymography with papain on gelatin-containing SDS-polyacrylamide gel; settings: 12.5% SDS-polyacrylamide gel with 0.1% gelatin, papain digestion pH 5.5, 37° C., 10 hours
# Description: The inventor used a technique “reverse zymography” as a method of detecting protease inhibitory substance and detected a protease inhibitory substance located on the gel of SDS-polyacrylamide gel electrophoresis. The reverse zymography is based on a technique opposite of the normal zymography, and the basic principle of the reverse zymography is as follows. That is, a sample containing protease inhibitory substance is applied onto SDS-polyacrylamide gel containing gelatin, and electrophoresis is performed, followed by soaking the gel in a protease solution to degrade protein in the gel. Protease activity is inhibited on a portion where an inhibitory substance is present and gelatin of the portion avoids being degraded by protease and is stained with staining solution, which enables detection of inhibitory substance.
# Using total milk protein and bovine lactoferrin (manufactured by Morinaga Milk Industry Co., Ltd.) as samples, electrophoresis (hereinafter, SDS-polyacrylamide gel electrophoresis is sometimes abbreviated to SDS-PAGE) was conducted with 12.5% SDS-polyacrylamide gel containing 0.1% of gelatin. After electrophoresis, the gel was washed by immersing it in a 2.5% Triton X-100 solution for 45 minutes, and further washed by repeating three times the operation of immersing the gel in distilled water for 45 minutes. […]
Molecule,inhibition rate at each concentration (%) (cathepsin L; inhibitor 10^−6M),inhibition rate at each concentration (%) (cathepsin B; inhibitor 10^−4M),inhibition rate at each concentration (%) (cathepsin B; inhibitor 10^−5M),inhibition rate at each concentration (%) (papain [1]; inhibitor 10^−6M),inhibition rate at each concentration (%) (cathepsin S; inhibitor 10^−4M),inhibition rate at each concentration (%) (cathepsin S; inhibitor 10^−5M),band in reverse zymography using papain (papain [2]),inhibition rate at each concentration (%) (cathepsin L; inhibitor 10^−4M),inhibition of cysteine protease activity (papain [1]; inhibitor 10^−3 M)
B1,completely inhibited,almost completely inhibited,more than 80%,completely inhibited,almost completely inhibited,more than 80%,–,–,–
B2,–,–,–,–,–,–,positive band,–,–
B3,–,more than 30%,–,–,–,–,–,more than 30%,completely inhibited
